Measured values published in patent publication US20250009896A1, “SUPR[…] BASED VIRAL […] CAPTURE FOR PREVENTION AND THERAPY OF VIRAL INFECTION” (The Johns Hopkins University, priority 2023, published 2025).

B1: ACE2-docking supramolecular filaments (20:1 molar ratio of Filler to Ligand), without ACE2 (peptide)
peptide 1: VVVGEE
peptide 2: VVVGKKGGGDYSHCSPLRYYPWWKCTYPDPEGGG
modifications: not checked

What was measured:
[1] = molecular target: T1, Recombinant human angiotensin-converting enzyme 2 (ACE2) protein, carrier-free (R&D Systems) (human), Q9BYF1
T1 sequence (Q9BYF1 18-740 limits assumed): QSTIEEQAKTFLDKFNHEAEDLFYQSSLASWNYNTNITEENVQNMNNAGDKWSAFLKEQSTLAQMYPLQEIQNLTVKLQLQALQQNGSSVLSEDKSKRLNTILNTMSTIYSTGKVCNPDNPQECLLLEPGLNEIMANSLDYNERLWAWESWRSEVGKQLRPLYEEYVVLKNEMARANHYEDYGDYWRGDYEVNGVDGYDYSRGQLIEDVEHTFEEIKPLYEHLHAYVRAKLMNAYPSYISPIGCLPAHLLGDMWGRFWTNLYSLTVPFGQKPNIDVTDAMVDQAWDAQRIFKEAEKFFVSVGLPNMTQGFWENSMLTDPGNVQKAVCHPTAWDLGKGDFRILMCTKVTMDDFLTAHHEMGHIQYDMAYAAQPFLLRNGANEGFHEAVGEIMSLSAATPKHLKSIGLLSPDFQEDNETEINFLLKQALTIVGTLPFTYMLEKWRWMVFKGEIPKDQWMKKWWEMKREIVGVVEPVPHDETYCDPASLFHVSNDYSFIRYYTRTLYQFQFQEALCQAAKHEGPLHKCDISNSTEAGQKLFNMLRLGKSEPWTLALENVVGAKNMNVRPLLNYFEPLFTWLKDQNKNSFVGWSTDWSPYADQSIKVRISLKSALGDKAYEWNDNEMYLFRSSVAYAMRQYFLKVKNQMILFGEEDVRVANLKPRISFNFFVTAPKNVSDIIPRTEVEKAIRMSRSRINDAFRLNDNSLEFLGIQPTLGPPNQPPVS

[2] = molecular target: T1, Recombinant human …; test: cell-based or functional assay
[3] = molecular target: T1, Recombinant human …; remark: listed apart in the source
[4] = molecular target: T1, Recombinant human …; test: calculated reference value for the zeta potential of the mixture

Binder	zeta potential of the 20:1 filaments after addition of ACE2 (bar '20:1+ACE2'); the sheet prints -31.9 for '20:1' without ACE2 (** between the two) and -29.4 for 'Filler' alone [1] [mV]	ACE2 enzymatic inhibition at 0 min incubation [2] [%]	inhibition of added ACE2 (initial velocity relative to free ACE2) [2] [%]	zeta potential of the mixture, measured [3] [mV]	intensity-averaged zeta potential calculated assuming no interaction [4] [mV]
B1	-36.7	83	93	–	–
VVVGKKGGGDYSHCSPLRYYPWWKCTYPDPEGGG (modifications not checked) [ACE2-binding Ligand peptide amphiphile (C12-VVVGKK-GG-OEG4-DX600)]	–	–	–	-25.1	-17.6
